Assay results as given in paper PMC6033465.

B1: human lysozyme c (enzyme)
chain: KVFERCELARTLKRLGMDGYRGISLANWMCLAKWESGYNTRATNYNAGDRSTDYGIFQINSRYWCNDGKTPGAVNACHLSCSALLQDNIADAVACAKRVVRDPQGIRAWVAWRNRCQNRDVRQYVQGCGV

Legend:
human lysozyme c (human) = human lysozyme c (human) (UniProt P61626)
[1] = target: recombinant wild type SliC (surface-exposed lysozyme inhibitor of c-type lysozyme, NGO1063) of N. gonorrhoeae FA1090 (N. gonorrhoeae FA1090); assay: BLI; biotinylated rSliC (20 ug/mL, 10 min) immobilised on streptavidin sensors, increasing concentrations of HL in solution; Kinetic Buffer (20 mM HEPES pH 8, 15 mM NaCl, 0.002 Tween 20, 0.1 mg/mL BSA); association and dissociation 600 s; 2:1 (Heterogeneous Ligand) model; three biological …; OctetRed 96

| Molecule | IC50 of SliC against the lytic activity of HL towards M. lysodeikticus peptidoglycan (fluorescein-labeled cell walls; 2.5 μM HL, 0-10 μM SliC) (human lysozyme c (human)) | Kd [1] |
| --- | --- | --- |
| recombinant wild type SliC (surface-exposed lysozyme inhibitor of c-type lysozyme, NGO1063) of N. gonorrhoeae FA1090 (natural protein) | 1.85 µM |  |
| B1 |  | 9.2 µM |
